These results are taken from WO2013157102A1 (dated 2013).

Assay [1] addresses T1, mucin subtype 5AC expressed on BxPC3 cells (human, UniProt P98088 28-5654).
T1 construct: whole, on cells; also called mucin 5AC; MUC5AC
Put plainly: flow cytometry on BxPC3 cells expressing mucin subtype 5AC, 20 ug/mL antibody, Alexa Fluor 488 anti-mouse IgG; mouse antibody is the positive reference.

In assay [2] the target is T1, mucin subtype 5AC expressed on BxPC3 …. The experiment in a line: flow cytometry on BxPC3 cells expressing mucin subtype 5AC, 20 ug/mL antibody, Alexa Fluor 488 anti-human IgG.

B1: mucin subtype 5AC-specific mouse antibody (antibody, V domains shown)
VH: EVKLVESGGVLVKSGGSLKLSCAVSGFTFSNYGMSWVRQTPEKRLEWVATISNSGRYTYFPDSVKGRFAISRDNAKNNLYLQMSSLRSADTALYYCTRHLDYANYDAMDYWGQGTSVTVSS
VL: DIVLTQSPASLAVSLGQRATISCRASKSVTTSDFSYMHWYQQKPGQPPKLLLYLASNLESGVPDRFSGSGSGTDFTLNIHPVEEEDAATYYCQHSREFPWTFGGGTKLEIK
notes: Detected with anti-mouse IgG
As to B1, in assay [1], the binding result is reported as “binds”.

B2: humanized antibody 1 (antibody, V domains shown)
VH: QVQLVESGGGVVQPGRSLRLSCSSSGFIFSNYGMSWVRQAPEKRLEWVATISNSGRYTYFPDSVKGRFTISRDNSKNTLFLQMDSLRPEDTGVYFCARHLDYANYDAMDYWGQGTPVTVSS
VL: DIVMTQSPNSLAVSLGERATINCRASKSVTTSDFSYMHWYQQKPGQPPKLLIYLASNLESGVPDRFSGSGSGTDFTLTISSLQAEDVAVYYCQHSREFPWTFGQGTKLEIK
notes: Expressed transiently in HEK293 cells and detected with anti-human IgG; also called VH-1 combined with VL-1; mucin subtype 5AC-specific humanized antibody
In the case of B2, the binding result in assay [2] is listed as “binds”.

B3: humanized antibody 2 (antibody, V domains shown)
VH: EVQLLESGGGLVQPGGSLRLSCAASGFTFSNYGMSWVRQAPGKGLEWVSTISNSGRYTYFPDSVKGRFTISRDNSKNTLYLQMNSLRAEDTAVYYCAKHLDYANYDAMDYWGQGTLVTVSS
VL: DIVMTQTPLSSPVTLGQPASISCRASKSVTTSDFSYMHWLQQRPGQPPRLLIYLASNLESGVPDRFSGSGAGTDFTLKISRVEAEDVGVYYCQHSREFPWTFGQGTKVEIK
notes: Detected with anti-human IgG; also called VH-4 combined with VL-5; mucin subtype 5AC-specific humanized antibody
With B3, in assay [2], the binding result was “binds”.

B4: humanized antibody 4 (antibody, V domains shown)
VH: EVQLLESGGGLVQPGGSLRLSCAASGFTFSNYGMSWVRQAPGKGLEWVSTISNSGRYTYFPDSVKGRFTISRDNSKNTLYLQMNSLRAEDTAVYYCAKHLDYANYDAMDYWGQGTLVTVSS
VL: DIQMTQSPSSLAVSLGDRVTITCRASKSVTTSDFSYMHWYQQKPGLAPKLLIYLASNLESGVPSRFSGSGSGTDFTFTISSLQPEDIATYYCQHSREFPWTFGQGTKVEVK
notes: also called VH-4 combined with VL-3; mucin subtype 5AC-specific humanized antibody
B4: in assay [2], the binding result is “binds”.

B5: humanized antibody 9 (antibody, V domains shown)
VH: QVQLQESGPGLVRPSQSLKLTCTVSGSTFSNYGMSWVRQTPEKRLEWIGTISNSGRYTYFPDSVKGRVTMLVDTSKNQFSLQMSSVTAADTAVYYCARHLDYANYDAMDYWGQGSLVTVSS
VL: DIVMTQTPLSSPVTLGQPASISCRASKSVTTSDFSYMHWLQQRPGQPPRLLIYLASNLESGVPDRFSGSGAGTDFTLKISRVEAEDVGVYYCQHSREFPWTFGQGTKVEIK
notes: Detected with anti-human IgG; also called VH-3 combined with VL-5; mucin subtype 5AC-specific humanized antibody
In the case of B5, the binding result in assay [2] was “binds”.

B6: humanized antibody 7 (antibody, V domains shown)
VH: EVQLVESGGGVVRPGGSLRLSCAASGFTFDNYGMSWVRQAPGKGLEWVSTISNSGRYTYFPDSVKGRFTISRDNAKNSLYLQMNSLRAEDTALYHCARHLDYANYDAMDYWGQGTLVTVSS
VL: DIVMTQTPLSSPVTLGQPASISCRASKSVTTSDFSYMHWLQQRPGQPPRLLIYLASNLESGVPDRFSGSGAGTDFTLKISRVEAEDVGVYYCQHSREFPWTFGQGTKVEIK
notes: Detected with anti-human IgG; also called VH-6 combined with VL-5; mucin subtype 5AC-specific humanized antibody
In the case of B6, in assay [2], the binding result is “binds”.

B7: humanized antibody 10 (antibody, V domains shown)
VH: EVQLLESGGGLVQPGGSLRLSCAASGFTFSNYGMSWVRQAPGKGLEWVSTISNSGRYTYFPDSVKGRFTISRDNSKNTLYLQMNSLRAEDTAVYYCAKHLDYANYDAMDYWGQGTLVTVSS
VL: DIVMTQTPLSLSVTPGQPASISCRASKSVTTSDFSYMHWYLQKPGQPPQLLIYLASNLESGVPDRFSGSGSGTDFTLKISRVEAEDVGVYYCQHSREFPWTFGQGTKVEIK
notes: Detected with anti-human IgG; also called VH-4 combined with VL-7; mucin subtype 5AC-specific humanized antibody
For B7, the binding result in assay [2] is on record as “binds”.

B8: humanized antibody 5 (antibody, V domains shown)
VH: EVQLLESGGGLVQPGGSLRLSCAASGFTFSNYGMSWVRQAPGKGLEWVSTISNSGRYTYFPDSVKGRFTISRDNSKNTLYLQMNSLRAEDTAVYYCAKHLDYANYDAMDYWGQGTLVTVSS
VL: DIQMTQSPSSLAVSLGDRVTITCRASKSVTTSDFSYMHWYQQTPGKAPKLLIYLASNLESGVPSRFSGSGSGTDYTFTISSLQPEDIATYYCQHSREFPWTFGQGTKLQIT
notes: Detected with anti-human IgG; also called VH-4 combined with VL-4; mucin subtype 5AC-specific humanized antibody
Take B8: the binding result in assay [2] was “binds”.

B9: humanized antibody 6 (antibody, V domains shown)
VH: EVQLVESGGGLVKPGGSLRLSCAASGFTFSNYGMSWVRQAPGKGLEWVSTISNSGRYTYFPDSVKGRFTISRDNAKNSLYLQMNSLRAEDTAVYYCARHLDYANYDAMDYWGQGTLVTVSS
VL: DIVMTQTPLSSPVTLGQPASISCRASKSVTTSDFSYMHWLQQRPGQPPRLLIYLASNLESGVPDRFSGSGAGTDFTLKISRVEAEDVGVYYCQHSREFPWTFGQGTKVEIK
notes: Detected with anti-human IgG; also called VH-5 combined with VL-5; mucin subtype 5AC-specific humanized antibody
For B9, in assay [2], the binding result was “binds”.

B10: humanized antibody 3 (antibody, V domains shown)
VH: EVQLLESGGGLVQPGGSLRLSCAASGFTFSNYGMSWVRQAPGKGLEWVSTISNSGRYTYFPDSVKGRFTISRDNSKNTLYLQMNSLRAEDTAVYYCAKHLDYANYDAMDYWGQGTLVTVSS
VL: DIQMTQSPSTLAVSLGDRVTITCRASKSVTTSDFSYMHWYQQKPGKAPKLLMYLASNLESGVPSRFIGSGSGTEFTLTISSLQPDDFATYYCQHSREFPWTFGQGTKVEVK
notes: Detected with anti-human IgG; also called VH-4 combined with VL-2; mucin subtype 5AC-specific humanized antibody
With B10, in assay [2], the binding result is given as “binds”.
